According to patent US20070167369A1, “Novel use of isolated polypeptide comprising four FAS-1 domains, EM1 domain and RGD motif” (KYUNGPOOK NATIONAL UNIVERSITY INDUSTRY-ACADEMIC COOPERATION …, priority 2004, published 2007):

What was measured:
β5/HEK293 cells = experiment: Apoptosis by annexin V staining, β5/HEK293 cells expressing αvβ5 integrin (Example 8); type: cell-based; conditions: annexin V FACS
Method: (§1) To identify an integrin that mediates the induction of endothelial cell apoptosis by the fas-1 domain, the present inventors performed a test using HEK293 cells (β3/HEK293 and β5/HEK293) which had been transfected such as to express αvβ3 integrin or αvβ5 integrin.
Meanwhile, a β5/HEK293 cell that expresses αvβ5 integrin was prepared in the following manner. In order to construct a human β5 integrin expression vector, RT-PCR using human placenta poly(A)^+ RNA as a template was first performed to prepare a 2.8-kb β5 cDNA (Suzuki et al., Proc. Natl. Acad. Sci. USA, 87:5354-5358, 1990). The amplified β5 cDNA was digested with EcoRI, and then cloned into a pcDNA3 vector (Invitrogen). The resulting vector was named “β5/pcDNA3”. Thereafter, 1 μg of the β5/pcDNA3 vector was introduced into HEK293 cells (ATCC, catalog No. CRL 1573) by lipofectamin (Gibco). A stable transfected cell was screened using 1 mg/ml of G418. The cell transfected with the β5/pcDNA3 vector was named “β5/HEK293”.
(§2) pc/HEK293 cells, β3/HEK293 cells and β5/HEK293 cells were stained with annexin V to identify an integrin that mediates the induction of endothelial cell apoptosis by the fas-1 domain. Each of the cells was suspended in medium at a density of 5×10^5 cells/ml, added to each well of 6-well plated and incubated at 37° C. overnight. Following this, a test was performed in the same manner as in Example 7-1 above.

[1] = test system: Melanoma cells B16F10 tumor; experiment: B16F10 subcutaneous tumor model, tumor growth and CD31 blood vessel count (Example 10-3); type: in vivo, BALB/c nude mouse; conditions: 9 mg/kg or 18 mg/kg into the abdominal cavity one time a day
Method: Melanoma cells B16F10 were suspended in medium at a density of 1×10^7 cells/ml. 0.1 ml of the cell suspension was injected subcutaneously to 5-6 week old BALB/c nude mouse (purchased from Jung-Ang Animal Inc. Ltd., Korea) to make a subcutaneous tumor model. When the volume of the tumor reached about 25 mm^3, mice having similar tumor size were selected and divided into three groups. The fas-1 domain (βig-h3 D-IV) prepared in Example 1 above was injected into the abdominal cavity of the mice of each group at the amount of 9 mg/kg or 18 mg/kg one time a day. A control was injected with saline solution. Thereafter, the body weight and tumor size of the mice were checked at intervals of three days. The diameter of the tumor was measured with slide calipers, and the volume of the tumor was calculated according to the equation 1 above.
Meanwhile, the tumor was removed after a given time, photographed with a stereoscopic microscope, weighed, and then fixed in 4% paraformaldehyde. The fixed tumor was immersed in 30%, 20% and 10% sucrose solutions one after another for one hour each solution, frozen rapidly with liquid nitrogen spray, and then left to stand at […] for two hours. The frozen tumor was sliced with a tissue microtome (Leica, Germany) to make tissue slides which were then dried at room temperature. Thereafter, the tissue slides were immuno-stained with CD31 (Pharmingen, San Diego, Calif.), an antibody that binds specifically to vascular endothelial cells. The immuno-stained slides were observed under a microscope, and the number of blood vessels from 3-5 LPF (low power fields; x100) was counted and averaged. Each group consisted of 5 or 6 members.

pc/HEK293 cells = experiment: Apoptosis by annexin V staining, pc/HEK293 control cells (Example 8); type: cell-based; conditions: annexin V FACS
Method: A control cell was transfected with a pcDNA3 vector containing no β3 cDNA or β5 cDNA fragment, and named “pc/HEK293”.
as §2

β3/HEK293 cells = experiment: Apoptosis by annexin V staining, β3/HEK293 cells expressing αvβ3 integrin (Example 8); type: cell-based; conditions: annexin V FACS
Method: as §1
For this purpose, a β3/HEK293 cell that expresses αvβ3 integrin was prepared in the following manner. In order to construct a human β3 integrin expression vector, RT-PCR using human placenta poly(A)^+ RNA as a template was first performed to produce 2.4-kb β3 cDNA (Chandrika, S. K. et al., J. Biol. Chem., 272:16390-16397, 1997). The amplified β3 cDNA was digested with HindIII/XbaI, and then cloned into a pcDNA3 vector (Invitrogen). The resulting vector was named “β3/pcDNA3”. Thereafter, 1 μg of the β3/pcDNA3 vector was introduced into HEK293 cells (ATCC, catalog No. CRL 1573) by lipofectamin (Gibco). As the vector contains a G418 selection marker, a stable transfected cell was screened using 1 mg/ml of G418. The cell transfected with the β3/pcDNA3 vector was named “β3/HEK293”.
as §2, with “Following this, a test was performed in the same manner as in Example 7-1 above.” left out

HUVECs = experiment: Endothelial tube formation assay on Matrigel (Examples 9-1 and 11); type: cell-based, human
Method: First, 100 μl of Matrigel (Chemicon, International Inc, Temecula, Calif.) was added to each well of a 96-well plate and allowed to polymerize. HUVECs were suspended in medium at a density of 3×10^5 cells/ml, and 0.1 ml of the cell suspension was added to each well of the plate coated with Matrigel. At this time, 5 μM or 10 μM of the fas-1 domain (βig-h3 D-IV) prepared in Example 1 above was added together. A control was either treated with BSA or had no treatment. Thereafter, the cells were incubated at 37° C. for 16-18 hours. The cells were photographed, and endothelial tubes were counted and averaged.
For this purpose, the second fas-1 domain of βig-h3 (βig-h3 D-II) was prepared in the same manner as in Example 1-1 above. Since each domain of stabilin-II is insoluble, it was prepared in the form of soluble protein by cloning into the BamHI/XhoI sites of a Nus-conjugated pET43.1 vector (Novagen, USA). The prepared recombinant proteins were named “Nus-fas3” and “Nus-fas7”, respectively. A control to the second fas-1 domain of βig-h3 was treated with BSA, and a control to the fas-1 domain of stabilin-II was treated with a Nus protein. Thereafter, an endothelial tube formation assay was performed in the same manner as in Example 9-1.

[2] = test system: B16F10 tumor microvessels; experiment: Intratumoral microvessel density, CD31 immunostaining (Example 15-2); type: in vivo, BALB/c nude mice; conditions: B16F10 tumors of treated mice
Method: To determine whether the reduced size of the indicated protein-treated tumors coincides with reduced neovascularization, the present inventors used six representative tumors to quantify the density of microvessels after immunostaining with CD31 antibody.
Concretly, intratumoral microvessel density (MVD) was analyzed on paraffin sections of B16F10 tumor using a rat anti-mouse CD31 monoclonal antibody (PharMingen, San Diego, Calif.). Immunoperoxidase staining was done using the Vectastain avidin-biotin complex Elite reagent kit (Vector Laboratories, Burlingame, Calif.). Sections were counterstained with Hematoxyline. MVD was assessed initially by scanning the tumor at low power, followed by identification of four areas at the tumor periphery containing the maximum number of discrete microvessels, and counting individual microvessels at a high power field (x200). Each group consisted of six or eight tumor tissue.

B1: fas-1 domain: recombinant protein containing the fourth fas-1 domain of human βig-h3 (SEQ ID NO: 64) (protein, listed as Homo sapiens)
chain: MGTVMDVLKGDNRFSMLVAAIQSAGLTETLNREGVYTVFAPTNEAFRALPPRERSRLLGDAKELANILKYHIGDEILVSGGIGALVRLKSLQGDKLEVSLKNNVVSVNKEPVAEPDIMATNGVVHVITNVL
induction of apoptosis of β5/HEK293 cells (β5/HEK293 cells): not induced
number of blood vessels stained with CD31 antibody in tumor [1]: significantly smaller than that of the control
tumor growth rate with time [1]: much lower than that of the control
tumor size [1]: little or no increase in size even at 10 days after tumor induction
induction of apoptosis of pc/HEK293 cells (pc/HEK293 cells): not induced
induction of apoptosis of β3/HEK293 cells (β3/HEK293 cells): induced by the fas-1 domain in a dose-dependent manner
inhibition of endothelial tube formation (HUVECs; 5 μM or 10 μM, 16-18 hours): inhibited the formation of endothelial tubes on Matrigel in a dose-dependent manner
in vitro angiogenesis inhibitory effect compared with YH motif-containing peptide fragment of 18 amino acids (HUVECs; 10 μM fas-1 domain vs 1 mM YH peptide): much higher

B2: truncated βig-h3: recombinant human βig-h3 with EMI domain, all four fas-1 domains and RGD motif; residues 68-653 of SEQ ID NO: 1 (SEQ ID NO: 66) (protein, listed as Homo sapiens)
chain: WYQRKICGKSTVISYECCPGYEKVPGEKGCPAALPLSNLYETLGVVGSTTTQLYTDRTEKLRPEMEGPGSFTIFAPSNEAWASLPAEVLDSLVSNVNIELLNALRYHMVGRRVLTDELKHGMTLTSMYQNSNIQIHHYPNGIVTVNCARLLKADHHATNGVVHLIDKVISTITNNIQQIIEIEDTFETLRAAVAASGLNTMLEGNGQYTLLAPTNEAFEKIPSETLNRILGDPEALRDLLNNHILKSAMCAEAIVAGLSVETLEGTTLEVGCSGDMLTINGKAIISNKDILATNGVIHYIDELLIPDSAKTLFELAAESDVSTAIDLFRQAGLGNHLSGSERLTLLAPLNSVFKDGTPPIDAHTRNLLRNHIIKDQLASKYLYHGQTLETLGGKKLRVFVYRNSLCIENSCIAAHDKRGRYGTLFTMDRVLTPPMGTVMDVLKGDNRFSMLVAAIQSAGLTETLNREGVYTVFAPTNEAFRALPPRERSRLLGDAKELANILKYHIGDEILVSGGIGALVRLKSLQGDKLEVSLKNNVVSVNKEPVAEPDIMATNGVVHVITNVLQPPANRPQERGDELADSALEI
CD31-positive microvessels in tumor (intratumoral microvessel density) [2]: decrease in CD31-positive microvessels
